# According to the supplement of paper PMC9112550, “Optimization of the antimicrobial peptide Bac7 by deep mutational scanning” (BMC Biology, 2022):
# System: Escherichia coli TOP10
# Experiment: shrunken log2 fold change of peptide-encoding DNA abundance (4.5 h post-induction vs induction); higher = less antimicrobial activity (less host growth inhibition)
# Conditions: time post-induction: 4.5 h; library: site-saturation at positions 5, 18, 19, 20
# 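Note: peptides expressed intracellularly from a pBAD plasmid library in pooled LB shake-flask culture, induced with 0.3% L-arabinose, DNA abundance read by NGS, three biological replicates, DESeq2 with apeglm shrinkage.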
row,Sequence,shrunken log2 fold change
1,RRIRFRPPRLPRPRPRPCPQPRP,-0.697
2,RRIRIRPPRLPRPRPRPPKRPRP,0.0802
3,RRIRERPPRLPRPRPRPYYWPRP,-0.192
4,RRIRKRPPRLPRPRPRPMRNPRP,1.32
5,RRIRNRPPRLPRPRPRPRHVPRP,-0.119
6,RRIRWRPPRLPRPRPRPGWEPRP,0.292
7,RRIRMRPPRLPRPRPRPYKTPRP,0.0261
8,RRIRPRPPRLPRPRPRPDSEPRP,-0.208
9,RRIRHRPPRLPRPRPRPFNWPRP,-0.194
10,RRIRWRPPRLPRPRPRPTSHPRP,-0.26
11,RRIRYRPPRLPRPRPRPQDVPRP,-0.103
12,RRIRARPPRLPRPRPRPTAHPRP,0.485
13,RRIRQRPPRLPRPRPRPPMDPRP,-0.0321
14,RRIRQRPPRLPRPRPRPTGHPRP,0.00113
15,RRIRRRPPRLPRPRPRPLWVPRP,0.382
16,RRIRSRPPRLPRPRPRPDQSPRP,0.217
17,RRIRGRPPRLPRPRPRPGLPPRP,0.747
18,RRIRFRPPRLPRPRPRPQRDPRP,0.218
19,RRIRLRPPRLPRPRPRPSNKPRP,-0.646
20,RRIRPRPPRLPRPRPRPKNHPRP,-0.282
21,RRIRIRPPRLPRPRPRPAKTPRP,0.0509
22,RRIRMRPPRLPRPRPRPVKMPRP,-0.124
23,RRIRVRPPRLPRPRPRPLHGPRP,0.0379

row,Sequence,shrunken log2 fold change
1,RRIRYRPPRLPRPRPRPHQDPRP,-0.0582
2,RRIRFRPPRLPRPRPRPGNDPRP,-0.512
3,RRIRIRPPRLPRPRPRPMADPRP,-0.0382
4,RRIRLRPPRLPRPRPRPKSVPRP,0.0155
5,RRIRERPPRLPRPRPRPFRKPRP,-0.534
6,RRIRKRPPRLPRPRPRPRHMPRP,-0.0275
7,RRIRYRPPRLPRPRPRPILYPRP,-0.679
8,RRIRRRPPRLPRPRPRPVYNPRP,-0.154
9,RRIRGRPPRLPRPRPRPARSPRP,0.686
10,RRIRCRPPRLPRPRPRPTGQPRP,0.123
11,RRIRRRPPRLPRPRPRPVHNPRP,0.0641
12,RRIRTRPPRLPRPRPRPNLAPRP,0.0471
13,RRIRWRPPRLPRPRPRPHPVPRP,-0.0118
14,RRIRDRPPRLPRPRPRPKYVPRP,0.13
15,RRIRQRPPRLPRPRPRPKECPRP,-0.0193
16,RRIRIRPPRLPRPRPRPIMEPRP,-0.216
17,RRIRWRPPRLPRPRPRPFQWPRP,0.236
18,RRIRSRPPRLPRPRPRPTWTPRP,0.764
19,RRIRYRPPRLPRPRPRPNFRPRP,-0.425
20,RRIRVRPPRLPRPRPRPMGPPRP,0.24
21,RRIRWRPPRLPRPRPRPQLPPRP,-0.00654
22,RRIRPRPPRLPRPRPRPGSEPRP,0.0814
23,RRIRSRPPRLPRPRPRPVYVPRP,-0.525

row,Sequence,shrunken log2 fold change
1,RRIRDRPPRLPRPRPRPSYWPRP,-0.0689
2,RRIRNRPPRLPRPRPRPGHTPRP,-0.175
3,RRIRWRPPRLPRPRPRPHVTPRP,-0.264
4,RRIRARPPRLPRPRPRPMSRPRP,-0.171
5,RRIRNRPPRLPRPRPRPFQKPRP,-0.185
6,RRIRLRPPRLPRPRPRPHATPRP,-0.0435
7,RRIRIRPPRLPRPRPRPEGCPRP,-0.0356
8,RRIRRRPPRLPRPRPRPTYTPRP,-0.214
9,RRIRVRPPRLPRPRPRPAYYPRP,-0.616
10,RRIRPRPPRLPRPRPRPAWIPRP,0.0812
11,RRIRNRPPRLPRPRPRPLQNPRP,0.176
12,RRIRPRPPRLPRPRPRPFQFPRP,-0.467
13,RRIRTRPPRLPRPRPRPMRWPRP,0.313
14,RRIRPRPPRLPRPRPRPHQEPRP,4.12
15,RRIRSRPPRLPRPRPRPPVKPRP,-0.136
16,RRIRLRPPRLPRPRPRPKNMPRP,-0.448
17,RRIRQRPPRLPRPRPRPDPTPRP,0.119
18,RRIRARPPRLPRPRPRPQMMPRP,0.129
19,RRIRTRPPRLPRPRPRPLQDPRP,0.00698
20,RRIRDRPPRLPRPRPRPYVMPRP,-0.342
21,RRIRERPPRLPRPRPRPYHKPRP,-0.804
22,RRIRPRPPRLPRPRPRPLWQPRP,0.0105
23,RRIRNRPPRLPRPRPRPKSCPRP,-0.0533

row,Sequence,shrunken log2 fold change
1,RRIRKRPPRLPRPRPRPYEQPRP,-0.0536
2,RRIRMRPPRLPRPRPRPKTGPRP,0.895
3,RRIRSRPPRLPRPRPRPTISPRP,-0.655
4,RRIRFRPPRLPRPRPRPKFPPRP,-0.0265
5,RRIRQRPPRLPRPRPRPLETPRP,0.181
6,RRIRYRPPRLPRPRPRPQAMPRP,-0.418
7,RRIRSRPPRLPRPRPRPPIWPRP,0.0326
8,RRIRARPPRLPRPRPRPTGDPRP,0.604
9,RRIRTRPPRLPRPRPRPSSCPRP,-0.222
10,RRIRVRPPRLPRPRPRPDTHPRP,-0.214
11,RRIRSRPPRLPRPRPRPHSIPRP,-0.248
12,RRIRIRPPRLPRPRPRPETGPRP,-0.322
13,RRIRCRPPRLPRPRPRPSLWPRP,-0.0313
14,RRIRNRPPRLPRPRPRPDFTPRP,0.0959
15,RRIRFRPPRLPRPRPRPYMIPRP,-0.59
16,RRIRERPPRLPRPRPRPARNPRP,0.194
17,RRIRGRPPRLPRPRPRPRDDPRP,0.536
18,RRIRIRPPRLPRPRPRPPAYPRP,-0.384
19,RRIRNRPPRLPRPRPRPKFVPRP,-0.0126
20,RRIRFRPPRLPRPRPRPYKMPRP,-0.62
21,RRIRMRPPRLPRPRPRPICIPRP,0.0141
22,RRIRTRPPRLPRPRPRPEINPRP,-0.106
